Data set [1] has as its target Vip3Ab1 (Bacillus thuringiensis). In words: SEC; analytical SEC, TSKgel SuperSW3000, 50 mM sodium phosphate pH 7.0 with 250 mM NaCl, 75 µl/min, 3 µl at 150 µg/ml, fluorescence detection; size from retention time against molecular weight standards; proteins not digested. (In general: In gel filtration, larger molecules generally elute earlier.)
Data set [2] deals with Vip3_BA chimera (N-terminal domain of Vip3Bc1 and C-terminal domain of Vip3Ab1) (Bacillus thuringiensis). The description is as above.
The target of data set [3] is Vip3_AB chimera (N-terminal domain of Vip3Ab1 and C-terminal domain of Vip3Bc1) (Bacillus thuringiensis). Described as above.
Data set [4] has as its target Vip3Ab1 after overnight processing with H. zea midgut enzymes (~20 kDa and ~65 kDa products together) (Bacillus thuringiensis). Nature of the data set: SEC; purified Vip3 protein digested overnight with H. zea gut fluid (50 mM MOPS pH 10, 30 °C), stopped with protease inhibitors, then analytical SEC on TSKgel SuperSW3000 in 50 mM sodium phosphate pH 7.0 with 250 mM NaCl; size from retention time.

The target in data set [5] is C-terminal ~65 kDa domain of Vip3Ab1, expressed from Leu222 (Bacillus thuringiensis). Nature of the data set: SEC; analytical SEC, TSKgel SuperSW3000, 50 mM sodium phosphate pH 7.0 with 250 mM NaCl, 75 µl/min, 3 µl at 150 µg/ml, fluorescence detection; size from retention time against molecular weight standards; proteins not digested.
The target of data set [6] is T1, ~65 kDa C-terminal product of Vip3Bc1 after gut enzyme processing (Bacillus thuringiensis, UniProt A0A290WPI2 214-803).
T1 construct: Vip3Bc1, GenBank MF543028, product from the cleavage 210NVTK/EVIE (processed at 214Glu); source: Vip3Bc1 from Pseudomonas fluorescens, purified, then digested overnight with H. zea gut enzymes
T1 sequence: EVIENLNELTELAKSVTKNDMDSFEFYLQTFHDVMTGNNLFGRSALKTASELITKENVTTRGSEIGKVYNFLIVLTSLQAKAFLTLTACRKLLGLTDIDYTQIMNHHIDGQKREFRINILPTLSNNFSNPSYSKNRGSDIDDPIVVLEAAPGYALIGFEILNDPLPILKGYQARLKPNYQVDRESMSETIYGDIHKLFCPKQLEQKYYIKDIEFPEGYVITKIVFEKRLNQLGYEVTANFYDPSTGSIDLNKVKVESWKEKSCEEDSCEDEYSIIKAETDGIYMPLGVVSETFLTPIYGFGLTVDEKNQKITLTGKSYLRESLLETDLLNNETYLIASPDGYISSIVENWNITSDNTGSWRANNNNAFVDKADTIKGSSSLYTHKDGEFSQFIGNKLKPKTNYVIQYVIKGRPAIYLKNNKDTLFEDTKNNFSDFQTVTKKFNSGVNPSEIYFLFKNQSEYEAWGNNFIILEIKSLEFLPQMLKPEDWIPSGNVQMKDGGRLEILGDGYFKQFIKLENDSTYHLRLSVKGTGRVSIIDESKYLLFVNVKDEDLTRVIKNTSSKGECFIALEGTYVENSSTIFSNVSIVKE
In words: SEC; purified Vip3 protein digested overnight with H. zea gut fluid (50 mM MOPS pH 10, 30 °C), stopped with protease inhibitors, then analytical SEC on TSKgel SuperSW3000 in 50 mM sodium phosphate pH 7.0 with 250 mM NaCl; size from retention time. As to conditions: both partners purified.

Data set [7] concerns the molecule itself. The data set is described as above.
Data set [8] deals with the molecule itself. Nature of the data set: SEC; analytical SEC, TSKgel SuperSW3000, 50 mM sodium phosphate pH 7.0 with 250 mM NaCl, 75 µl/min, 3 µl at 150 µg/ml, fluorescence detection; size from retention time against molecular weight standards; proteins not digested.

As to Vip3Ab1 (natural protein), in data set [1], the stoichiometry N (as a rule, the number of molecules, sites or subunits per partner or assembly) came to 4. In data set [2], “Vip3_BA chimera (N-terminal domain of Vip3Bc1 and C-terminal domain of Vip3Ab1) (from UniProt A0A290WPI2 2-223)” yielded a percent tetrameric of 50% and a stoichiometry N of 4. “Vip3_AB chimera (N-terminal domain of Vip3Ab1 and C-terminal domain of Vip3Bc1) (from UniProt A0A290WPI2 224-803)” came in with a stoichiometry N in data set [3] of 4. Turning to “Vip3Ab1 after overnight processing with H. zea midgut enzymes (~20 kDa and ~65 kDa products together) (complex)”, the stoichiometry N in data set [4] was determined as 4. With “C-terminal ~65 kDa domain of Vip3Ab1, expressed from Leu222 (domain or fragment)”, the stoichiometry N in data set [5] is 2.

B1: ~20 kDa N-terminal product of Vip3Bc1 after gut enzyme processing (domain or fragment)
chain: ALPSFIDYFNGIYGFATGIKDIMGMIFKTDTGGSNLTLDEILKNQNLLNDISGKLDGINGDLGDLIAQGNLNSELAKELLKISNEQNQMLNHVNAQLNAINSTLNIYLPKITSMLNEVMKQNHVLSLQIEFLSKQLQEISDKLDIINLNVLINSTLTEITPAYQRIKYVNEKFDELTSTVEKNPKSYQDNVTK
notes: Vip3Bc1, GenBank MF543028, product between the cleavage at 21Ala and the cleavage 210NVTK/EVIE (processed at 214Glu); source: Vip3Bc1 from Pseudomonas fluorescens, purified, then digested overnight with H. zea gut enzymes
On to B1, for which the binding result in data set [6] was “binds”.

B2: Vip3Bc1 after overnight processing with H. zea midgut enzymes (~20 kDa and ~65 kDa products together) (complex)
chain 1: ALPSFIDYFNGIYGFATGIKDIMGMIFKTDTGGSNLTLDEILKNQNLLNDISGKLDGINGDLGDLIAQGNLNSELAKELLKISNEQNQMLNHVNAQLNAINSTLNIYLPKITSMLNEVMKQNHVLSLQIEFLSKQLQEISDKLDIINLNVLINSTLTEITPAYQRIKYVNEKFDELTSTVEKNPKSYQDNVTK
chain 2: EVIENLNELTELAKSVTKNDMDSFEFYLQTFHDVMTGNNLFGRSALKTASELITKENVTTRGSEIGKVYNFLIVLTSLQAKAFLTLTACRKLLGLTDIDYTQIMNHHIDGQKREFRINILPTLSNNFSNPSYSKNRGSDIDDPIVVLEAAPGYALIGFEILNDPLPILKGYQARLKPNYQVDRESMSETIYGDIHKLFCPKQLEQKYYIKDIEFPEGYVITKIVFEKRLNQLGYEVTANFYDPSTGSIDLNKVKVESWKEKSCEEDSCEDEYSIIKAETDGIYMPLGVVSETFLTPIYGFGLTVDEKNQKITLTGKSYLRESLLETDLLNNETYLIASPDGYISSIVENWNITSDNTGSWRANNNNAFVDKADTIKGSSSLYTHKDGEFSQFIGNKLKPKTNYVIQYVIKGRPAIYLKNNKDTLFEDTKNNFSDFQTVTKKFNSGVNPSEIYFLFKNQSEYEAWGNNFIILEIKSLEFLPQMLKPEDWIPSGNVQMKDGGRLEILGDGYFKQFIKLENDSTYHLRLSVKGTGRVSIIDESKYLLFVNVKDEDLTRVIKNTSSKGECFIALEGTYVENSSTIFSNVSIVKE
notes: Vip3Bc1 ~20 kDa product, as m9; Vip3Bc1 ~65 kDa product, as m10; Vip3Bc1 was processed much more slowly than Vip3Ab1; also called processed Vip3Bc1; source: Vip3Bc1 from Pseudomonas fluorescens, purified, then digested overnight with H. zea gut enzymes; copies: 4 + 4
B2: the “stoichiometry N” value in data set [7] turned out to be 4.

B3: Vip3Bc1 (natural protein)
chain: VQKWMQRMIIVDNNKLNVRALPSFIDYFNGIYGFATGIKDIMGMIFKTDTGGSNLTLDEILKNQNLLNDISGKLDGINGDLGDLIAQGNLNSELAKELLKISNEQNQMLNHVNAQLNAINSTLNIYLPKITSMLNEVMKQNHVLSLQIEFLSKQLQEISDKLDIINLNVLINSTLTEITPAYQRIKYVNEKFDELTSTVEKNPKSYQDNVTKEVIENLNELTELAKSVTKNDMDSFEFYLQTFHDVMTGNNLFGRSALKTASELITKENVTTRGSEIGKVYNFLIVLTSLQAKAFLTLTACRKLLGLTDIDYTQIMNHHIDGQKREFRINILPTLSNNFSNPSYSKNRGSDIDDPIVVLEAAPGYALIGFEILNDPLPILKGYQARLKPNYQVDRESMSETIYGDIHKLFCPKQLEQKYYIKDIEFPEGYVITKIVFEKRLNQLGYEVTANFYDPSTGSIDLNKVKVESWKEKSCEEDSCEDEYSIIKAETDGIYMPLGVVSETFLTPIYGFGLTVDEKNQKITLTGKSYLRESLLETDLLNNETYLIASPDGYISSIVENWNITSDNTGSWRANNNNAFVDKADTIKGSSSLYTHKDGEFSQFIGNKLKPKTNYVIQYVIKGRPAIYLKNNKDTLFEDTKNNFSDFQTVTKKFNSGVNPSEIYFLFKNQSEYEAWGNNFIILEIKSLEFLPQMLKPEDWIPSGNVQMKDGGRLEILGDGYFKQFIKLENDSTYHLRLSVKGTGRVSIIDESKYLLFVNVKDEDLTRVIKNTSSKGECFIALEGTYVENSSTIFSNVSIVKE
notes: Vip3Bc1, vegetative insecticidal protein of Bacillus thuringiensis, GenBank MF543028; expressed with only the first methionine removed (N-terminus VQKWM at 2); Gene was synthesized, codon biased for maize; source: Pseudomonas fluorescens, purified (ammonium sulfate precipitation, anion exchange)
Regarding B3, in data set [8], the “stoichiometry N” value was determined as 4.

B4: C-terminal ~65 kDa domain of Vip3Bc1, expressed from Leu222 (domain or fragment)
chain: LTELAKSVTKNDMDSFEFYLQTFHDVMTGNNLFGRSALKTASELITKENVTTRGSEIGKVYNFLIVLTSLQAKAFLTLTACRKLLGLTDIDYTQIMNHHIDGQKREFRINILPTLSNNFSNPSYSKNRGSDIDDPIVVLEAAPGYALIGFEILNDPLPILKGYQARLKPNYQVDRESMSETIYGDIHKLFCPKQLEQKYYIKDIEFPEGYVITKIVFEKRLNQLGYEVTANFYDPSTGSIDLNKVKVESWKEKSCEEDSCEDEYSIIKAETDGIYMPLGVVSETFLTPIYGFGLTVDEKNQKITLTGKSYLRESLLETDLLNNETYLIASPDGYISSIVENWNITSDNTGSWRANNNNAFVDKADTIKGSSSLYTHKDGEFSQFIGNKLKPKTNYVIQYVIKGRPAIYLKNNKDTLFEDTKNNFSDFQTVTKKFNSGVNPSEIYFLFKNQSEYEAWGNNFIILEIKSLEFLPQMLKPEDWIPSGNVQMKDGGRLEILGDGYFKQFIKLENDSTYHLRLSVKGTGRVSIIDESKYLLFVNVKDEDLTRVIKNTSSKGECFIALEGTYVENSSTIFSNVSIVKE
notes: Vip3Bc1, GenBank MF543028, beginning at Leu222; also called C-terminus of Vip3Bc1; C-terminal region of Vip3Bc1; source: Pseudomonas fluorescens, purified
With B4, the “stoichiometry N” value in data set [8] was 2.
